Measurements: paper PMC5588548, “Suramin Inhibits Osteoarthritic Cartilage Degradation by Increasing Extracellular Levels of Chondroprotective Tissue Inhibitor of Metalloproteinases 3” (Molecular Pharmacology, 2017)

Tested on: HTB94 chondrosarcoma cells
Assay type: cell-based
Description: Cells (HTB94 chondrosarcoma cells, primary porcine chondrocytes, or human osteoarthritic chondrocytes) were plated overnight (6 × 10^5 cells per well of a 12-well plate) in DMEM containing 10% FCS and washed three times in serum-free DMEM.
To evaluate endocytosis of exogenously added TIMP-3, cells were incubated with recombinant TIMP-3 (1 nM in 1.5 ml DMEM with 0.1% FCS) for 0–24 hours. Conditioned media were concentrated by precipitation with trichloroacetic acid [5% (v/v), 4°C, 18 hours]. After centrifugation (13,000 rpm, 4°C, 10 minutes), protein-containing pellets were resuspended in SDS sample buffer (30 µl), electrophoresed (7 µl) on a 10% polyacrylamide gel, and immunoblotted onto polyvinylidene fluoride. After blocking in 5% (m/v) BSA in Tris-buffered saline, TIMP-3 levels were analyzed using an M2 anti-FLAG antibody (Sigma-Aldrich), an alkaline phosphatase–conjugated anti-mouse secondary antibody (Promega, Southampton, UK), and a Western Blue stabilized substrate for alkaline phosphatase (Promega). Immunoblots were analyzed by densitometry using Phoretix 1D densitometry software (TotalLab, Newcastle-upon-Tyne, UK), and TIMP-3 remaining in the medium (mean ± S.D., n = 3) was calculated relative to pixel volume at a t of 0 hours (defined as 100%).

B1: TIMP-3: C-terminally FLAG-tagged human TIMP-3 expressed in human embryonic kidney 293 cells; endogenous metalloproteinase inhibitor (protein, UniProt P35625 24-211, looked up)
Metalloproteinase inhibitor 3: CTCSPSHPQDAFCNSDIVIRAKVVGKKLVKEGPFGTLVYTIKQMKMYRGFTKMPHVQYIHTEASESLCGLKLEVNKYQYLLTGRVYDGKMYTGLCNFVERWDQLTLSQRKGLNYRYHLGCNCKIKSCYYLPCFVTSKNECLWTDMLSNFGYPGYQSKHYACIRQKGGYCSWYRGWAPPDKSIINATDP
modifications: C-terminal FLAG tag
- half-life of TIMP-3 uptake from the medium: 4.0 ± 1.3 h
